Tests used:
HSP70 [1] = biological target: HSP70 (UniProt P0DMV8); assay: ELISA, plate coated with HSP70, bound protein detected with peroxidase-conjugated anti-human antibody
HSP70 [2] = biological target: HSP70 (UniProt P0DMV8); assay: ELISA, plate coated with HSP70

Chain of HSP70 (P0DMV8 whole entry): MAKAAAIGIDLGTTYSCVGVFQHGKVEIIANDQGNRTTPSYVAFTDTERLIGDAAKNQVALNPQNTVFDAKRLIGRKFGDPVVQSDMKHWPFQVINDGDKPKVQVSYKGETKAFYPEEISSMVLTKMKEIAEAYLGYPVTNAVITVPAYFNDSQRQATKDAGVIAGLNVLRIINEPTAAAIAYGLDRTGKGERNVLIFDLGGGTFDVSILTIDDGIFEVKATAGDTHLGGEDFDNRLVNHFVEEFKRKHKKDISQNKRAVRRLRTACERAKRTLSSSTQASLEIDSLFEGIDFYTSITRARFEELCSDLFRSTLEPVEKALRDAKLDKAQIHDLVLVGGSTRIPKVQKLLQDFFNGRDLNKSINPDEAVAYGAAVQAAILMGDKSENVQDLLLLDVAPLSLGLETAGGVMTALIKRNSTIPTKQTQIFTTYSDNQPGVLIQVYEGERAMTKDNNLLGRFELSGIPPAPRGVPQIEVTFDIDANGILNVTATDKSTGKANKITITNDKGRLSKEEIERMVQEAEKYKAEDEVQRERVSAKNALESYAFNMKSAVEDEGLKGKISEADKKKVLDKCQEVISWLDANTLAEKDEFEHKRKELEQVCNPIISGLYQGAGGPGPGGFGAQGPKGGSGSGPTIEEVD

B1: Fc-LPD N346, 362, 409Q (Fc fusion)
chain: APPAAGQQQPPREPPAAPGAWRQQIQWENNGQVFSLLSLGSQYQPQRRRDPGAAVPGAAQASAQQPRTPILLIRDQRTAAARTRTAGSSGVTAGRPRPTARHWFQAGYSTSRAREAGASRAEQQTAPGEVPALSNLRPPSRVDGMVGD
In the case of B1, the EC50 (HSP70 [1]) is reported as 57 nM and the EC50 (HSP70 [2]) is reported as 41 nM.

Reference: patent US20220049236A1
